From PMC8163975 (The Journal of Biological Chemistry, 2021)

T1: RALA, mGppNHp-bound (human, UniProt P11233 1-206)
T1 construct: human RALA; Loaded with mGppNHp
T1 sequence (looked up): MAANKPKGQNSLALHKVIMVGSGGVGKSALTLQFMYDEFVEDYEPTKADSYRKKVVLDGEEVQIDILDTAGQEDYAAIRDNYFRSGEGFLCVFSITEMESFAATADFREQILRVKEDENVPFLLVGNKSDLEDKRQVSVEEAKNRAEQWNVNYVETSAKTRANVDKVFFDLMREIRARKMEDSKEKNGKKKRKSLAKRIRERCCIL

T2: RAP2A, mGppNHp-bound (human, UniProt P10114 1-183)
T2 construct: human RAP2A; Loaded with mGppNHp
T2 sequence (looked up): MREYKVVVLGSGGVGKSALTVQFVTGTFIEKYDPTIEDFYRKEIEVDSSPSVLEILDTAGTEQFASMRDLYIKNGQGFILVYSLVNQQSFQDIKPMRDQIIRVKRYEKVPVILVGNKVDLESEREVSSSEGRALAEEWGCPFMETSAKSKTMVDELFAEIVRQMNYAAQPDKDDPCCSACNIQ

T3: RRAS1, mGppNHp-bound (human, UniProt P10301 1-218)
T3 construct: human RRAS (RRAS1); Loaded with mGppNHp
T3 sequence (looked up): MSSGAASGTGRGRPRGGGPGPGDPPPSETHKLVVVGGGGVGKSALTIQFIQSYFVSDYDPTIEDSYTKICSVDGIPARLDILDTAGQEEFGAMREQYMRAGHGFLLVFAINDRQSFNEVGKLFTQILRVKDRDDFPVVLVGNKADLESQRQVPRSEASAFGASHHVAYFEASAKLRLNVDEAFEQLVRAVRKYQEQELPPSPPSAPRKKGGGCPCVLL

B1: RASSF4 RA domain, MBP fusion protein (domain or fragment, human, UniProt Q9H2L5 174-262, looked up)
chain: YNHKTSVFTPAYGSVTNVRVNSTMTTLQVLTLLLNKFRVEDGPSEFALYIVHESGERTKLKDCEYPLISRILHGPCEKIARIFLMEADL
notes: RASSF4 RA domain, aa 174-262 of Q9H2L5
B2: RAP1B, mGppNHp-bound (natural protein, human, UniProt P61224 1-184, looked up)
chain: MREYKLVVLGSGGVGKSALTVQFVQGIFVEKYDPTIEDSYRKQVEVDAQQCMLEILDTAGTEQFTAMRDLYMKNGQGFALVYSITAQSTFNDLQDLREQILRVKDTDDVPMILVGNKCDLEDERVVGKEQGQNLARQWNNCAFLESSAKSKINVNEIFYDLVRQINRKTPVPGKARKKSSCQLL
notes: human RAP1B; Loaded with mGppNHp
B3: RASSF6 RA domain, MBP fusion protein (domain or fragment, human, UniProt Q6ZTQ3 218-306, looked up)
chain: YNHETSIFIPAFESETKVRVNSNMRTEEVIKQLLQKFKIENSPQDFALHIIFATGEQRRLKKTDIPLLQRLLQGPSEKNARIFLMDKDA
notes: RASSF6 RA domain, aa 218-306 of Q6ZTQ3
B4: RASSF10 RA domain, MBP fusion protein (domain or fragment, human, UniProt A6NK89 4-133, looked up)
chain: SEKKISVWICQEEKLVSGLSRRTTCSDVVRVLLEDGCRRRRRQRRSRRLGSAGDPHGPGELPEPPNEDDEDDDEALPQGMLCGPPQCYCIVEKWRGFERILPNKTRILRLWAAWGEEQENVRFVLVRSEA
notes: RASSF10 RA domain, aa 4-133 of A6NK89
B5: RASSF9 RA domain, MBP fusion protein (domain or fragment, human, UniProt O75901 25-119, looked up)
chain: EEKEIVVWVCQEEKLVCGLTKRTTSADVIQALLEEHEATFGEKRFLLGKPSDYCIIEKWRGSERVLPPLTRILKLWKAWGDEQPNMQFVLVKADA
notes: RASSF9 RA domain, aa 25-119 of O75901
B6: RASSF9 RA domain, His-tagged MBP fusion (domain or fragment, human, UniProt O75901 25-119, looked up)
chain: EEKEIVVWVCQEEKLVCGLTKRTTSADVIQALLEEHEATFGEKRFLLGKPSDYCIIEKWRGSERVLPPLTRILKLWKAWGDEQPNMQFVLVKADA
notes: RASSF9 RAS association (RA) domain, aa 25–119 of O75901; Cloned into pMal-c5X-His; Used in fluorescence polarisation and, coupled to Ni-NTA beads, in the pull-down; source: E. coli, purified (Ni-NTA)
B7: RASSF5 RA domain, MBP fusion protein (domain or fragment, UniProt Q5EBH1 200-358, looked up)
chain: PPTIQEIKQKIDSYNSREKHCLGMKLSEDGTYTGFIKVHLKLRRPVTVPAGIRPQSIYDAIKEVNPAATTDKRTSFYLPLDAIKQLHISSTTTVSEVIQGLLKKFMVVDNPQKFALFKRIHKDGQVLFQKLSIADYPLYLRLLAGPDTDVLSFVLKENE
notes: RASSF5 RA domain, aa 200-358 of Q5EBH1 as the methods print it; also called NORE1; RAPL
B8: RASSF3 RA domain, MBP fusion protein (domain or fragment, human, UniProt Q86WH2 79-187, looked up)
chain: YTGFIKVQMELCKPPQTSPNSGKLSPSSNGCMNTLHISSTNTVGEVIEALLKKFLVTESPAKFALYKRCHREDQVYACKLSDREHPLYLRLVAGPRTDTLSFVLREHEI
notes: RASSF3 RA domain, aa 79-187 of Q86WH2
B9: RASSF1 RA domain, MBP fusion protein (domain or fragment, human, UniProt Q9NS23 194-288, looked up)
chain: RGPGRGTSVRRRTSFYLPKDAVKHLHVLSRTRAREVIEALLRKFLVVDDPRKFALFERAERHGQVYLRKLLDDEQPLRLRLLAGPSDKALSFVLK
notes: RASSF1 RA domain, aa 194-288 of Q9NS23
B10: RASSF2 RA domain, MBP fusion protein (domain or fragment, human, UniProt P50749 176-264, looked up)
chain: YNHKTSVFTPAYGSVTNVRINSTMTTPQVLKLLLNKFKIENSAEEFALYVVHTSGEKQKLKATDYPLIARILQGPCEQISKVFLMEKDQ
notes: RASSF2 RA domain, aa 176-264 of P50749
B11: RASSF2-to-1 variant of the RASSF2 RA domain, MBP fusion protein (domain or fragment, human, UniProt P50749 176-264, looked up)
chain: YNHKTSVFTPKDGSKHNVRINSTMTTPQVLKLLLNKFKIENSAEEFALYVVHTSGEKQKLKATDYPLIARILQGPCEQISKVFLMEKDQ
notes: RASSF2 RA domain (aa 176-264 of P50749, the limits of the wild-type construct) with four hotspot residues changed to those of RASSF1; source: gene synthesis (BioCat) in pMal-c5X-His vector; E. coli, purified
B12: RASSF8 RA domain, MBP fusion protein (domain or fragment, human, UniProt Q8NHQ8 1-82, looked up)
chain: MELKVWVDGVQRIVCGVTEVTTCQEVVIALAQAIGRTGRYTLIEKWRDTERHLAPHENPIISLNKWGQYASDVQLILRRTGP
notes: RASSF8 RA domain, aa 1-82 of Q8NHQ8
B13: RASSF7 RA domain, MBP fusion protein (domain or fragment, human, UniProt Q02833 6-89, looked up)
chain: AAMELKVWVDGIQRVVCGVSEQTTCQEVVIALAQAIGQTGRFVLVQRLREKERQLLPQECPVGAQATCGQFASDVQFVLRRTGP
notes: RASSF7 RA domain, aa 6-89 of Q02833
B14: RASSF7 RA domain, His-tagged MBP fusion (domain or fragment, human, UniProt Q02833 6-89, looked up)
chain: AAMELKVWVDGIQRVVCGVSEQTTCQEVVIALAQAIGQTGRFVLVQRLREKERQLLPQECPVGAQATCGQFASDVQFVLRRTGP
notes: RASSF7 RAS association (RA) domain, aa 6–89 of Q02833; Cloned into pMal-c5X-His; Used in fluorescence polarisation and, coupled to Ni-NTA beads, in the pull-down; source: E. coli, purified (Ni-NTA)

Assays:
Conditions in all cases: both partners purified
[1] = target: T4, RHEB1, mGppNHp-bound (human, UniProt Q15382 1-184); experiment: fluorescence polarisation; increasing concentrations of the RA/RB domain as MBP fusion protein (0.002-300 µM; or MBP alone) titrated to mGppNHp-bound RAS protein (1 µM); 30 mM Tris-HCl pH 7.4, 100 mM NaCl, 5 mM MgCl2, 3 mM DTT; Kd from a quadratic ligand-binding equation
T4 construct: human RHEB1; Loaded with mGppNHp; the discussion speaks of the RHEB G domain
T4 sequence (Q15382 whole entry, the tested form may be a part): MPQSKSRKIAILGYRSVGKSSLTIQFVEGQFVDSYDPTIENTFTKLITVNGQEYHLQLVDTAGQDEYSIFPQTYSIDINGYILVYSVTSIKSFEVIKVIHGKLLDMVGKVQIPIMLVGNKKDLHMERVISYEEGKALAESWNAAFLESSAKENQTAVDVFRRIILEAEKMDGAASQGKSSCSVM

[2] = target: T5, RIT1, mGppNHp-bound (human, UniProt Q92963 1-219); experiment: as above
T5 construct: human RIT1; Loaded with mGppNHp
T5 sequence (Q92963 whole entry): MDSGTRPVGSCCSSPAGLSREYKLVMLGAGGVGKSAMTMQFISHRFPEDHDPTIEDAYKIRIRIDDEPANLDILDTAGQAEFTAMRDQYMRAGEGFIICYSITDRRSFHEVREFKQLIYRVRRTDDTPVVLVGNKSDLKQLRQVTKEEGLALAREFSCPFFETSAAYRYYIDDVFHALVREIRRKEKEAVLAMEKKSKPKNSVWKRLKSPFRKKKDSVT

[3] = target: B2; experiment: as above
[4] = target: T1, RALA, mGppNHp-bound; experiment: as above
[5] = target: T2, RAP2A, mGppNHp-bound; experiment: as above
[6] = target: T6, CRAF RB domain, MBP fusion protein (human, UniProt P04049 51-131); experiment: as above
T6 construct: source: E. coli (pMal-c5X-His vector), purified as MBP fusion protein

[7] = target: T3, RRAS1, mGppNHp-bound; experiment: as above
[8] = target: T7, HRAS, mGppNHp-bound (human, UniProt P01112-1 1-189); experiment: as above
T7 construct: human HRAS; Loaded with mGppNHp, a fluorescent non-hydrolysable GTP analogue; That the RAS proteins were the pGEX (GST) constructs is surmised; also called HRAS1; p21HRAS

[9] = target: T8, RIT1•mGppNHp (human, UniProt Q92963 1-219); experiment: fluorescence polarisation; increasing concentrations of RA/RB domains as MBP fusions (0.002–300 μM) added to mGppNHp-bound RAS proteins (1 μM); 30 mM Tris-HCl pH 7.4, 100 mM NaCl, 5 mM MgCl2, 3 mM DTT; quadratic ligand-binding equation
T8 construct: human RIT1; Loaded with mGppNHp
T8 sequence (Q92963 whole entry, the tested form may be a part): as the sequence (Q92963 whole entry) above

[10] = target: T3, RRAS1, mGppNHp-bound; experiment: fluorescence polarisation; increasing concentrations of the RA/RB domain as MBP fusion protein (0.002-300 µM; or MBP alone) titrated to mGppNHp-bound RAS protein (1 µM); 30 mM Tris-HCl pH 7.4, 100 mM NaCl, 5 mM MgCl2, 3 mM DTT; Kd from a quadratic ligand-binding equation; remark: listed apart in the source
[11] = target: T1, RALA, mGppNHp-bound; experiment: as above; remark: listed apart in the source

Binder	Kd [1]	Kd [2]	Kd [3]	Kd [4]	Kd [5]	Kd [6]	Kd [7]	Kd [8]	Kd [9]	Kd [10]	Kd [11]
B1	47 µM	58 µM	101 µM	191 µM	88 µM	–	–	–	–	–	–
B2	–	–	–	–	–	30 µM	–	–	–	–	–
B3	56 µM	98 µM	65 µM	–	53 µM	–	112 µM	91 µM	–	–	–
B4	150 µM	55 µM	73 µM	–	67 µM	–	99 µM	–	–	–	–
B5	143 µM	–	74 µM	–	66 µM	–	–	–	–	–	–
B6	–	–	–	–	–	–	–	–	27 µM	–	–
B7	46 µM	–	4 µM	49 µM	2 µM	–	56 µM	–	–	–	–
B8	64 µM	–	116 µM	–	100 µM	–	435 µM	–	–	–	–
B9	37 µM	136 µM	26 µM	18 µM	22 µM	–	33 µM	–	–	–	–
B10	44 µM	–	67 µM	167 µM	47 µM	–	122 µM	–	–	–	–
B11	–	–	–	–	–	–	–	–	–	100 µM	49 µM
B12	102 µM	76 µM	66 µM	115 µM	67 µM	–	114 µM	–	–	–	–
B13	76 µM	–	72 µM	101 µM	68 µM	–	30 µM	–	–	–	–
B14	–	–	–	–	–	–	–	–	34 µM	–	–
